We go through 5 substances from article PMC12309418.

Assay [1] addresses fluorescein-maleimide labeled ABD2 of PLS2 (human). As to the kind of experiment: fluorescence polarisation; equilibrium fluorescence anisotropy in a plate reader, 10 nM FM-ABD2 with increasing RD-ABD1, 60 min at 22 °C, PLS buffer pH 8.0, quadratic isotherm fit.
For assay [2] the target is unchanged. As to the kind of experiment: fluorescence polarisation; equilibrium fluorescence anisotropy in a plate reader, 10 nM FM-ABD2 with increasing RD-ABD1, 60 min at 22 °C, PLS buffer pH 7.0, quadratic isotherm fit. On the technique in general: Polarisation of emitted light reports the rotation of a fluorescent probe.
Assay [3] has the same target. In words: fluorescence polarisation; stopped-flow fluorescence anisotropy kinetics, 25 °C, buffer pH 6.6; association: FM-ABD2 (50 or 100 nM) with at least 10-fold excess of unlabeled RD-ABD1 (pseudo-first-order); dissociation: 25 or 50 nM FM-ABD2 bound to 50 or 100 nM RD-ABD1, competed with 7.5 to 20 μM unlabeled ABD2; Kd calculated from koff and kon.
Assay [4] shares this target. As to the kind of experiment: fluorescence polarisation; stopped-flow fluorescence anisotropy kinetics, 25 °C, buffer pH 7.0; association: FM-ABD2 (50 or 100 nM) with at least 10-fold excess of the unlabeled RD-ABD1 construct (pseudo-first-order); dissociation: 25 or 50 nM FM-ABD2 bound to 50 or 100 nM RD-ABD1 construct, competed with 7.5 to 20 μM unlabeled ABD2; Kd calculated from koff and kon.

The target is the same in assay [5]. As to the kind of experiment: fluorescence polarisation; stopped-flow fluorescence anisotropy kinetics, 25 °C, buffer pH 7.8; association: FM-ABD2 (50 or 100 nM) with at least 10-fold excess of unlabeled RD-ABD1 (pseudo-first-order); dissociation: 25 or 50 nM FM-ABD2 bound to 50 or 100 nM RD-ABD1, competed with 7.5 to 20 μM unlabeled ABD2; Kd calculated from koff and kon.

For assay [6] the target is unchanged. As to the kind of experiment: fluorescence polarisation; stopped-flow fluorescence anisotropy kinetics, 25 °C, buffer pH 7.4; association: FM-ABD2 (50 or 100 nM) with at least 10-fold excess of unlabeled RD-ABD1 (pseudo-first-order); dissociation: 25 or 50 nM FM-ABD2 bound to 50 or 100 nM RD-ABD1, competed with 7.5 to 20 μM unlabeled ABD2; Kd calculated from koff and kon.

Assay [7] has the same target. In words: fluorescence polarisation; stopped-flow fluorescence anisotropy kinetics, 25 °C, buffer pH 8.0; association: FM-ABD2 (50 or 100 nM) with at least 10-fold excess of the unlabeled RD-ABD1 construct (pseudo-first-order); dissociation: 25 or 50 nM FM-ABD2 bound to 50 or 100 nM RD-ABD1 construct, competed with 7.5 to 20 μM unlabeled ABD2; Kd calculated from koff and kon.

In assay [8] the target is Skeletal actin, filamentous (F-actin) (rabbit) (UniProt P68135).
Assay [9] deals with PLS2 RD-ABD1 (a.a. 1-385) (human) (UniProt P13796). In words: fluorescence polarisation; equilibrium fluorescence anisotropy, pH 7.0, PLS buffer, 22 °C, 60 min; 10 nM FM-ABD2 with RD-ABD1; quadratic isotherm.
Sequence of PLS2 RD-ABD1 (a.a. 1-385) (human) (P13796 1-385): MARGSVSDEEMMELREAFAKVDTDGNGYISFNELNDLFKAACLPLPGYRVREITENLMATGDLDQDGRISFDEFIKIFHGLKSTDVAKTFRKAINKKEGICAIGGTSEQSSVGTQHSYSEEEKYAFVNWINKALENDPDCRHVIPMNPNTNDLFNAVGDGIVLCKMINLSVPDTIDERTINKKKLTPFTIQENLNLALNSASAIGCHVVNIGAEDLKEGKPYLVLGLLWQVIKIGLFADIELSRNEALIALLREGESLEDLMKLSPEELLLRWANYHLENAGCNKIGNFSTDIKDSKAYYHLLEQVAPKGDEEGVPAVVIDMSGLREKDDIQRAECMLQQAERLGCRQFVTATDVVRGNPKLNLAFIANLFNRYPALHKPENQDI
Assay [10] deals with Skeletal actin, filamentous (F-actin) (rabbit) (UniProt P68135). In words: fluorescence polarisation; equilibrium fluorescence anisotropy in a plate reader, 5 nM FM-ABD2 with F-actin stabilized with 1.0 uM phalloidin, PLS buffer pH 7.0, 22 °C, quadratic isotherm.
Assay [11] shares this target. As to the kind of experiment: fluorescence polarisation; stopped-flow fluorescence anisotropy kinetics, pH 7.4, 25 °C; association: FM-ABD2 (50 or 100 nM) with at least 10-fold F-actin; dissociation: from phalloidin-stabilized F-actin with excess unlabeled ABD2; Kd from koff and kon.
The target of assay [12] is PLS2 RD-ABD1 (a.a. 1-385) (human) (UniProt P13796). As to the kind of experiment: fluorescence polarisation; stopped-flow fluorescence anisotropy kinetics of FM-ABD2 with RD-ABD1, 25 °C, pH 6.6 to 8.0 (the text tells the results for the whole pH range together); dissociation with excess unlabeled ABD2.
The target in assay [13] is PLS2 RD-ABD1-H207K (human) (UniProt P13796). As to the kind of experiment: fluorescence polarisation; stopped-flow fluorescence anisotropy kinetics of FM-ABD2 with RD-ABD1-H207K and RD-ABD1-H207Y, 25 °C, pH 7.0 and 8.0 (fold changes for both pH values together); dissociation with excess unlabeled ABD2.
The target of assay [14] is PLS2 RD-ABD1-H207Y (human) (UniProt P13796). The assay is described as above.
The target in assay [15] is PLS2 RD-ABD1 (a.a. 1-385) (human) (UniProt P13796). In words: fluorescence polarisation; stopped-flow fluorescence anisotropy, 25 °C, PLS buffer pH 7.8; association of FM-ABD2 (50 or 100 nM) with excess RD-ABD1 (kon from the slope of kobs, line forced through koff); dissociation by competition with 7.5 to 20 uM unlabeled ABD2 (koff).
Assay [16] addresses Skeletal actin, filamentous (F-actin) (rabbit) (UniProt P68135). In words: fluorescence polarisation; equilibrium fluorescence anisotropy, pH 7.0, PLS buffer, 22 °C, 60 min; 5 nM FM-ABD2 with F-actin stabilized with 1.0 μM phalloidin; quadratic isotherm.
Assay [17] has the same target. As to the kind of experiment: fluorescence polarisation; stopped-flow fluorescence anisotropy kinetics, pH 7.8, 25 °C; association of FM-ABD2 (50 or 100 nM) with at least 10-fold F-actin; koff could not be measured.
Assay [18] deals with PLS2 RD-ABD1 (a.a. 1-385) (human) (UniProt P13796). As to the kind of experiment: fluorescence polarisation; stopped-flow fluorescence anisotropy, 25 °C, PLS buffer pH 6.6; association of FM-ABD2 (50 or 100 nM) with excess RD-ABD1 (kon from the slope of kobs, line forced through koff); dissociation by competition with 7.5 to 20 uM unlabeled ABD2 (koff).
For assay [19] the target is unchanged. In words: fluorescence polarisation; stopped-flow fluorescence anisotropy, 25 °C, PLS buffer pH 8.0; association of FM-ABD2 (50 or 100 nM) with excess RD-ABD1 (kon from the slope of kobs, line forced through koff); dissociation by competition with 7.5 to 20 uM unlabeled ABD2 (koff).
The target is the same in assay [20]. In words: fluorescence polarisation; stopped-flow fluorescence anisotropy, 25 °C, PLS buffer pH 7.0; association of FM-ABD2 (50 or 100 nM) with excess RD-ABD1 (kon from the slope of kobs, line forced through koff); dissociation by competition with 7.5 to 20 uM unlabeled ABD2 (koff).
For assay [21] the target is unchanged. As to the kind of experiment: fluorescence polarisation; stopped-flow fluorescence anisotropy, 25 °C, PLS buffer pH 7.4; association of FM-ABD2 (50 or 100 nM) with excess RD-ABD1 (kon from the slope of kobs, line forced through koff); dissociation by competition with 7.5 to 20 uM unlabeled ABD2 (koff).
In assay [22] the target is Skeletal actin, filamentous (F-actin) (rabbit) (UniProt P68135). As to the kind of experiment: fluorescence polarisation; stopped-flow fluorescence anisotropy kinetics, pH 6.6, 25 °C; association: FM-ABD2 (50 or 100 nM) with at least 10-fold F-actin; dissociation: from phalloidin-stabilized F-actin with excess unlabeled ABD2; Kd from koff and kon.
The target is the same in assay [23]. As to the kind of experiment: fluorescence polarisation; stopped-flow fluorescence anisotropy kinetics, pH 6.8, 25 °C; association: FM-ABD2 (50 or 100 nM) with at least 10-fold F-actin; dissociation: from phalloidin-stabilized F-actin with excess unlabeled ABD2; Kd from koff and kon.
For assay [24] the target is unchanged. As to the kind of experiment: fluorescence polarisation; stopped-flow fluorescence anisotropy kinetics, pH 7.0, 25 °C; association: FM-ABD2 (50 or 100 nM) with at least 10-fold F-actin; dissociation: from phalloidin-stabilized F-actin with excess unlabeled ABD2; Kd from koff and kon.
Assay [25] has the same target. As to the kind of experiment: fluorescence polarisation; equilibrium fluorescence anisotropy, pH 8.0, PLS buffer, 22 °C, 60 min; 5 nM FM-ABD2 with F-actin stabilized with 1.0 μM phalloidin; quadratic isotherm.
Assay [26] has the same target. As to the kind of experiment: fluorescence polarisation; stopped-flow fluorescence anisotropy kinetics, pH 8.0, 25 °C; association of FM-ABD2 (50 or 100 nM) with at least 10-fold F-actin; koff could not be measured.
Assay [27] has the same target. In words: fluorescence polarisation; equilibrium fluorescence anisotropy in a plate reader, 5 nM FM-ABD2 with F-actin stabilized with 1.0 uM phalloidin, PLS buffer pH 8.0, 22 °C, quadratic isotherm.

Sequence of PLS2 RD-ABD1 (a.a. 1–385) (P13796 1-385): as above
Sequence of PLS2-core (a.a. 83–627) (P13796 83-627): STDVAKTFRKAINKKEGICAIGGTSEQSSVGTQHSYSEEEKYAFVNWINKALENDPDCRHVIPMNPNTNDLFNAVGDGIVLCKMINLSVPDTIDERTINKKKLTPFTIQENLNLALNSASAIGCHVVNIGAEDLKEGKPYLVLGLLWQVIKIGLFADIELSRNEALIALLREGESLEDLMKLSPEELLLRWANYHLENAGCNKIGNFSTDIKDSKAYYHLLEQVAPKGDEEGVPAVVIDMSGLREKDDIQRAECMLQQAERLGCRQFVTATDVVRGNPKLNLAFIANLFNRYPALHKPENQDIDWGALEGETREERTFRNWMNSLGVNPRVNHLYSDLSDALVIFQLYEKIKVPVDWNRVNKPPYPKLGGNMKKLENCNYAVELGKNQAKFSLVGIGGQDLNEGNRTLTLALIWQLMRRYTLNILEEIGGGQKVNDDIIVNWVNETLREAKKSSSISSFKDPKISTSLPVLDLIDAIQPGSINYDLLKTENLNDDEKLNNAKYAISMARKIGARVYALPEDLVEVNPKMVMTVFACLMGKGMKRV

Broadly, the Kd is the concentration at which binding is half-saturated. By koff is commonly meant the first-order rate constant of dissociation. The kon is a measure of how fast the partners come together. Take “PLS2 RD-ABD1 (a.a. 1–385) (from UniProt P13796 1-385) (domain or fragment)”: the Kd in [1] is 8.7 nM; in assay [2], 4.5 nM; in assay [3], 5.1 nM; in assay [4] it was 5.7 nM; in assay [5] it was 7.7 nM; in assay [6], 11 nM. Further, the Kd in assay [7] was 7.6 nM. The off-rate constant (koff) in assay [3] was 0.01 s⁻¹; in [4], 0.009 s⁻¹; in assay [5], 0.008 s⁻¹; in assay [6] it was 0.013 s⁻¹; in [7], 0.008 s⁻¹. Also, the kon in assay [3] is 1.94e+06 M⁻¹ s⁻¹; in [4], 1.6e+06 M⁻¹ s⁻¹; in assay [5], 1.07e+06 M⁻¹ s⁻¹; in assay [6] it was 1.24e+06 M⁻¹ s⁻¹; in assay [7], 1.01e+06 M⁻¹ s⁻¹.

For the substance “PLS2 RD-ABD1-H207K (from UniProt P13796 1-385) (domain or fragment)”, in assay [4], the Kd is 24 nM, the koff is 0.039 s⁻¹ and the kon is 1.59e+06 M⁻¹ s⁻¹. Besides, the kon in assay [7] was 1.12e+06 M⁻¹ s⁻¹.

For the substance “PLS2 RD-ABD1-H207Y (from UniProt P13796 1-385) (domain or fragment)”, in assay [4], the Kd was 1.1 nM, the koff is 0.0021 s⁻¹ and the kon was 1.87e+06 M⁻¹ s⁻¹. Besides, in assay [7], the equilibrium dissociation constant (Kd) was 2.2 nM, the koff is 0.0026 s⁻¹ and the kon is 1.21e+06 M⁻¹ s⁻¹.

As to “PLS2-core (a.a. 83–627) (from UniProt P13796 83-627) (domain or fragment)”, in [8], the fold decrease in F-actin bundling by PLS2-core (light scattering; low-speed centrifugation), pH 8.0 against pH 7.0 came out at 2 fold.

For “fluorescein-maleimide labeled PLS2 ABD2 (FM-ABD2) (domain or fragment)”, in [9], the fold stronger association at pH 7.0 than at pH 8.0 turned out to be 2 fold. The Kd was 2.88 nM in assay [10]; 12 nM in assay [11]; 5 nM in assay [16]; 15 nM in [22]; 13 nM in assay [23]; 9.5 nM in assay [24]. The Kd is 1.7 nM in [25] and 0.613 nM in [27]. Also, the koff worked out at 0.0073 s⁻¹ in [11]; 0.008 s⁻¹ in assay [12]; 0.00826 s⁻¹ in assay [15]; 0.00992 s⁻¹ in assay [18]; 0.0077 s⁻¹ in assay [19]; 0.00905 s⁻¹ in [20]. The koff in [21] is 0.0135 s⁻¹; in [22] it was 0.0073 s⁻¹; in [23] it was 0.0066 s⁻¹; in assay [24] it was 0.0057 s⁻¹. Also, the association rate constant (kon) was determined as 601000 M⁻¹ s⁻¹ in assay [11]; 1.07e+06 M⁻¹ s⁻¹ in [15]; 1.28e+06 M⁻¹ s⁻¹ in [17]; 1.94e+06 M⁻¹ s⁻¹ in [18]; 1.01e+06 M⁻¹ s⁻¹ in assay [19]; 1.6e+06 M⁻¹ s⁻¹ in assay [20]. In addition, the kon was 1.24e+06 M⁻¹ s⁻¹ in assay [21]; 479000 M⁻¹ s⁻¹ in assay [22]; 502000 M⁻¹ s⁻¹ in assay [23]; 600000 M⁻¹ s⁻¹ in [24]; 1.45e+06 M⁻¹ s⁻¹ in assay [26]. The substance further yielded a fold slower kon at pH 8.0 than at pH 6.6 in [12] of 2 fold. Moreover, the fold change of kon against WT RD-ABD1 in assay [13] and in assay [14] was below 1.2 fold in each case. For the same substance, the fold increase of koff against WT RD-ABD1 in assay [13] was 4 to 12 fold. The same substance registered a fold decrease of koff against WT RD-ABD1 in assay [14] of 3 to 4 fold.
